FireProtDB (doi:10.1016/j.jmb.2004.09.091)

Details: Dictyostelium discoideum, pH 6.7, Urea, Fluorescence, KH2PO4/K2HPO4 50 mM, reversible: Yes

Chain of Hisactophilin-1 wild type (P13231 whole entry, looked up): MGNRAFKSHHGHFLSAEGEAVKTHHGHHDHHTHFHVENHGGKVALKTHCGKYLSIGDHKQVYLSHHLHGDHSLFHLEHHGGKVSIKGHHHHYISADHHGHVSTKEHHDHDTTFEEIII

Substance: Hisactophilin-1 wild type (from UniProt P13231)
- denaturant m value (5 °C): 2.66 kcal/mol/M
- denaturant midpoint (higher = more stable) (5 °C): 2.14 M
- unfolding free energy (5 °C): 5.37 kcal/mol
- denaturant m value (15 °C): 2.7 kcal/mol/M
- denaturant midpoint (higher = more stable) (15 °C): 2.58 M
- unfolding free energy (15 °C): 6.5 kcal/mol
- denaturant m value (20 °C): 2.53 kcal/mol/M
- denaturant midpoint (higher = more stable) (20 °C): 2.89 M
- unfolding free energy (20 °C): 6.71 kcal/mol
- denaturant m value (25 °C): 2.51 kcal/mol/M
- denaturant midpoint (higher = more stable) (25 °C): 2.91 M
- unfolding free energy (25 °C): 6.68 kcal/mol
- denaturant m value (30 °C): 2.28 kcal/mol/M
- denaturant midpoint (higher = more stable) (30 °C): 2.95 M
- unfolding free energy (30 °C): 6.08 kcal/mol
- denaturant m value (35 °C): 2.44 kcal/mol/M
- denaturant midpoint (higher = more stable) (35 °C): 2.87 M
- unfolding free energy (35 °C): 6.43 kcal/mol
- denaturant m value (40 °C): 2.34 kcal/mol/M
- denaturant midpoint (higher = more stable) (40 °C): 2.63 M
- unfolding free energy (40 °C): 5.67 kcal/mol
- denaturant m value (45 °C): 2.24 kcal/mol/M
- denaturant midpoint (higher = more stable) (45 °C): 2.45 M
- unfolding free energy (45 °C): 5.05 kcal/mol
